Article PMC5007788, “Heat Shock Factor 1 Is a Substrate for p38 Mitogen-Activated Protein Kinases” (Molecular and Cellular Biology, 2016)
Changes are numbered by the printed parent chain. Names and notes keep the numbering of the source. Values joined by “and” are separate entries in the source; they are usually repeats but may differ in a detail not shown here. Identical values can stand only once.

T1: Heat shock factor 1 (HSF1), endogenous in MDA-MB-231 cells (human (endogenous in MDA-MB-231)), Q00613
T1 chain: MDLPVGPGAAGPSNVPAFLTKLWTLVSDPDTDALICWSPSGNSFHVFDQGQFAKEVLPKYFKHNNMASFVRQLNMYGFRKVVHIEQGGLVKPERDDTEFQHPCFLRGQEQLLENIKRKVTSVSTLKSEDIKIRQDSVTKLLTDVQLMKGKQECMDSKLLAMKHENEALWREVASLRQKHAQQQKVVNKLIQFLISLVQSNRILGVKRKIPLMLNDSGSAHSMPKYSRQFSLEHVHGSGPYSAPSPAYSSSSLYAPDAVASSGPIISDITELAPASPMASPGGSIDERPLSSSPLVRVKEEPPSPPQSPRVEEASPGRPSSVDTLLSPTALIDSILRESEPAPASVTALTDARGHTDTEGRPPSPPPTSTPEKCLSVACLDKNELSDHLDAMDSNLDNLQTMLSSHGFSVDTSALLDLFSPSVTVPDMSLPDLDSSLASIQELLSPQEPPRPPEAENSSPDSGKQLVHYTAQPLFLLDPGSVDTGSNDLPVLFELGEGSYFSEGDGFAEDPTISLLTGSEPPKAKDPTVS

B1: Heat shock factor 1 (HSF1), endogenous in MDA-MB-231 cells, Q00613 1-529 (natural protein)
chain: T1 chain
B2: Recombinant hexahistidine-tagged HSF1 wild-type (natural protein, human, UniProt Q00613 1-529, looked up)
chain: T1 chain with P448L
notes: subcloned into pet15b (NdeI, XhoI); The vector pet15b is named; also called His-HSF1; HSF1 WT; source: E. coli BL21(DE3)pLysS, purified (nickel agarose resin, dialysis)
B3: Recombinant hexahistidine-tagged mutant S326A HSF1 (natural protein, human, UniProt Q00613 1-529, looked up)
chain: T1 chain with S326A, P448L
notes: Heat shock factor 1, human, full-length cDNA from Addgene plasmid 32537 (P to L at position 448) in pet15b, with S326A made by site-directed mutagenesis; Made from the pet15b plasmid of m3; also called S326A mutant HSF1; HSF1 S326A; source: E. coli BL21(DE3)pLysS, purified (nickel agarose resin, dialysis)

Experiments:
[1] = target: T1, Heat shock factor 1 (HSF1), endogenous …; assay: cross-linking; MDA-MB-231 cells treated with 20 uM PEITC for 3 h, fixed with 0.4% (wt/vol) paraformaldehyde in PBS, quenched with glycine; nuclear and cytoplasmic fractions; SDS-PAGE (10% gel), blot with anti-HSF1; conditions: remark: other sources report otherwise
[2] = target: the molecule itself; assay: gel electrophoresis (NuPAGE NoVex Bis-Tris 10% gel); purified recombinant hexahistidine-tagged HSF1 (WT and S326A) run on NuPAGE; dimeric and trimeric species formed spontaneously beside the major band

Binder	stoichiometry N [1]	stoichiometry N [2]
B1	2 and 3	
B2		2 and 3
B3		2 and 3
